Starred links: 1 amine or outer side, 2 acyl side, 3 side chain; linkers in the order of their positions; H or OH if unused. Non-standard residues stand in square brackets, D forms with d. *: point of attachment. C20 diacid = O=C(O)CCCCCCCCCCCCCCCCCCC(=O)*; γGlu = O=C(O)[C@H](CCC(=O)[*:2])N[*:1]; Hyp = O=C(O)[C@@H]1C[C@@H](O)CN1; AEEA = NCCOCCOCC(=O)O
T1: human amylin receptor (AMY3) on CHO-K1/Ga15/AMY3 amylin receptor/CRE-luc cells (human, UniProt P30988 25-474; O60896 24-148)
T1 sequence (looked up) 1: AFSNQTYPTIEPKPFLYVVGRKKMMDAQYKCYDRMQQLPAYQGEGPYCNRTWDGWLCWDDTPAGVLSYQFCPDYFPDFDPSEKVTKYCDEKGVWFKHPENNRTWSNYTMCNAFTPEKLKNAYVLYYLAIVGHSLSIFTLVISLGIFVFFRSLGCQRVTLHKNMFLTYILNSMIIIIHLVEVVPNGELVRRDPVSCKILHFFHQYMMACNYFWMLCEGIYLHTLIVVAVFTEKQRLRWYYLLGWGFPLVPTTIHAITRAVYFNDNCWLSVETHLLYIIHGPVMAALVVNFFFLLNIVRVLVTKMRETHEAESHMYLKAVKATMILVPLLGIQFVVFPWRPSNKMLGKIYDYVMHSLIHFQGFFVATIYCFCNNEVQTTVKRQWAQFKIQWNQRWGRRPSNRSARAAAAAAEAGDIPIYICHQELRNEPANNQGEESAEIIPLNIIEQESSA
T1 sequence (looked up) 2: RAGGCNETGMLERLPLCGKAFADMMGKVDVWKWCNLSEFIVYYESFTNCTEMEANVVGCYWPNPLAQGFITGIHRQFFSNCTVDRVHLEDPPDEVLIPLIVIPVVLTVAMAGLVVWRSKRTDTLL


Biological target: T1, human amylin receptor (AMY3) on …
Assay: cell-based or functional assay

EC50/nM, CRE-luciferase reporter in amylin receptor/CRE-luc CHO cells | Relative activity (the EC50 ratio of Cagrilintide to the compound) | Binder
0.038 nM | 68% | {C20 diacid-γGlu}-ASQLSTAVLGRLADFLRHSSNNLKPILPPTNVGSNT[Hyp]-NH2 (SMILES CC[C@H](C)[C@H](NC(=O)[C@@H]1CCCN1C(=O)[C@H](CCCCN)NC(=O)[C@H](CC(C)C)NC(=O)[C@H](CC(N)=O)NC(=O)[C@H](CC(N)=O)NC(=O)[C@H](CO)NC(=O)[C@H](CO)NC(=O)[C@H](Cc1c[nH]cn1)NC(=O)[C@H](CCCNC(=N)N)NC(=O)[C@H](CC(C)C)NC(=O)[C@H](Cc1ccccc1)NC(=O)[C@H](CC(=O)O)NC(=O)[C@H](C)NC(=O)[C@H](CC(C)C)NC(=O)[C@H](CCCNC(=N)N)NC(=O)CNC(=O)[C@H](CC(C)C)NC(=O)[C@@H](NC(=O)[C@H](C)NC(=O)[C@@H](NC(=O)[C@H](CO)NC(=O)[C@H](CC(C)C)NC(=O)[C@H](CCC(N)=O)NC(=O)[C@H](CO)NC(=O)[C@H](C)NC(=O)CC[C@H](NC(=O)CCCCCCCCCCCCCCCCCCC(=O)O)C(=O)O)[C@@H](C)O)C(C)C)C(=O)N[C@@H](CC(C)C)C(=O)N1CCC[C@H]1C(=O)N1CCC[C@H]1C(=O)N[C@H](C(=O)N[C@@H](CC(N)=O)C(=O)N[C@H](C(=O)NCC(=O)N[C@@H](CO)C(=O)N[C@@H](CC(N)=O)C(=O)N[C@H](C(=O)N1C[C@H](O)C[C@H]1C(N)=O)[C@@H](C)O)C(C)C)[C@@H](C)O) [polypeptide derivative M2]
0.026 nM | 94% | {C20 diacid}-E[AEEA][AEEA]ASQLSTAATQRLADFLRHFTDRDRDILPPTNVGSNTP-NH2 (SMILES CC[C@H](C)[C@H](NC(=O)[C@H](CC(=O)O)NC(=O)[C@H](CCCNC(=N)N)NC(=O)[C@H](CC(=O)O)NC(=O)[C@H](CCCNC(=N)N)NC(=O)[C@H](CC(=O)O)NC(=O)[C@@H](NC(=O)[C@H](Cc1ccccc1)NC(=O)[C@H](Cc1c[nH]cn1)NC(=O)[C@H](CCCNC(=N)N)NC(=O)[C@H](CC(C)C)NC(=O)[C@H](Cc1ccccc1)NC(=O)[C@H](CC(=O)O)NC(=O)[C@H](C)NC(=O)[C@H](CC(C)C)NC(=O)[C@H](CCCNC(=N)N)NC(=O)[C@H](CCC(N)=O)NC(=O)[C@@H](NC(=O)[C@H](C)NC(=O)[C@H](C)NC(=O)[C@@H](NC(=O)[C@H](CO)NC(=O)[C@H](CC(C)C)NC(=O)[C@H](CCC(N)=O)NC(=O)[C@H](CO)NC(=O)[C@H](C)NC(=O)COCCOCCNC(=O)COCCOCCNC(=O)[C@H](CCC(=O)O)NC(=O)CCCCCCCCCCCCCCCCCCC(=O)O)[C@@H](C)O)[C@@H](C)O)[C@@H](C)O)C(=O)N[C@@H](CC(C)C)C(=O)N1CCC[C@H]1C(=O)N1CCC[C@H]1C(=O)N[C@H](C(=O)N[C@@H](CC(N)=O)C(=O)N[C@H](C(=O)NCC(=O)N[C@@H](CO)C(=O)N[C@@H](CC(N)=O)C(=O)N[C@H](C(=O)N1CCC[C@H]1C(N)=O)[C@@H](C)O)C(C)C)[C@@H](C)O) [polypeptide derivative M17]

— EP4663654A1 (Hangzhou Sciwind Biosciences Co., Ltd., dated 2025)
